The target in this assay is Sulfolobus acidocaldarius GPN-loop GTPase Saci1281 (SaGPN) (Sulfolobus acidocaldarius). As to the kind of experiment: SEC.

This is an account of results in doi:10.1101/2023.04.08.536109.

Usually stoichiometry N stands for a count of units in the complex or per binding partner. Regarding “Sulfolobus acidocaldarius GPN-loop GTPase Saci1281 (SaGPN) (enzyme)”, the stoichiometry N worked out at 2.
